Molecular target: human CLDN18.2 expressed on cells (human)
Assay: cell-based or functional assay

ADCC on KATOIII CLDN18.2 cells, LDH: EC50 (nM), run A: 0.12 nM | ADCC on KATOIII CLDN18.2 cells, LDH: EC50 (nM), run B: 0.22 nM | ADCC on KATOIII CLDN18.2 cells, LDH: EC50 (nM), run C: 0.27 nM | ADCC on NCI-N87 CLDN18.2 cells, LDH: EC50 (nM), run A: 0.057 nM | ADCC on NCI-N87 CLDN18.2 cells, LDH: EC50 (nM), run B: 0.082 nM | ADCC on NCI-N87 CLDN18.2 cells, LDH: EC50 (nM), run C: 0.1 nM | CDC on CT26 CLDN18.2 cells, LDH: EC50 (nM), run A: 11.5 nM | CDC on CT26 CLDN18.2 cells, LDH: EC50 (nM), run B: 10.7 nM | CDC on CT26 CLDN18.2 cells, LDH: EC50 (nM), run C: 11.9 nM | CDC on KATOIII CLDN18.2 cells, LDH: EC50 (nM), run A: 38.1 nM | CDC on KATOIII CLDN18.2 cells, LDH: EC50 (nM), run B: 22.7 nM | CDC on KATOIII CLDN18.2 cells, LDH: EC50 (nM), run C: 27.5 nM
B1: reference mAb (IMAB362, Ganymed) (antibody, INN chains, looked up, V domains shown)
VH: QVQLQQPGAELVRPGASVKLSCKASGYTFTSYWINWVKQRPGQGLEWIGNIYPSDSYTNYNQKFKDKATLTVDKSSSTAYMQLSSPTSEDSAVYYCTRSWRGNSFDYWGQGTTLTVSS
VL: DIVMTQSPSSLTVTAGEKVTMSCKSSQSLLNSGNQKNYLTWYQQKPGQPPKLLIYWASTRESGVPDRFTGSGSGTDFTLTISSVQAEDLAVYYCQNDYSYPFTFGSGTKLEIKR
ADCC on KATOIII CLDN18.2 cells, LDH: max (% cytotoxity), run A: 27.9% | ADCC on KATOIII CLDN18.2 cells, LDH: max (% cytotoxity), run B: 24.5% | ADCC on KATOIII CLDN18.2 cells, LDH: max (% cytotoxity), run C: 24.5% | ADCC on NCI-N87 CLDN18.2 cells, LDH: max (% cytotoxity), run A: 26.1% | ADCC on NCI-N87 CLDN18.2 cells, LDH: max (% cytotoxity), run B: 22.1% | ADCC on NCI-N87 CLDN18.2 cells, LDH: max (% cytotoxity), run C: 21.1% | CDC on CT26 CLDN18.2 cells, LDH: max (% cytotoxity), run A: 72.5% | CDC on CT26 CLDN18.2 cells, LDH: max (% cytotoxity), run B: 54.7% | CDC on CT26 CLDN18.2 cells, LDH: max (% cytotoxity), run C: 51.6% | CDC on KATOIII CLDN18.2 cells, LDH: max (% cytotoxity), run A: 29.7% | CDC on KATOIII CLDN18.2 cells, LDH: max (% cytotoxity), run B: 46% | CDC on KATOIII CLDN18.2 cells, LDH: max (% cytotoxity), run C: 34.9%

Source: US20250263482A1
